Experimental data taken from patent US20040102611.

T1: HA-DRF1 (DRF1 with N-terminal HA epitope, expressed from pCDNAHAdrf1)
T1 chain: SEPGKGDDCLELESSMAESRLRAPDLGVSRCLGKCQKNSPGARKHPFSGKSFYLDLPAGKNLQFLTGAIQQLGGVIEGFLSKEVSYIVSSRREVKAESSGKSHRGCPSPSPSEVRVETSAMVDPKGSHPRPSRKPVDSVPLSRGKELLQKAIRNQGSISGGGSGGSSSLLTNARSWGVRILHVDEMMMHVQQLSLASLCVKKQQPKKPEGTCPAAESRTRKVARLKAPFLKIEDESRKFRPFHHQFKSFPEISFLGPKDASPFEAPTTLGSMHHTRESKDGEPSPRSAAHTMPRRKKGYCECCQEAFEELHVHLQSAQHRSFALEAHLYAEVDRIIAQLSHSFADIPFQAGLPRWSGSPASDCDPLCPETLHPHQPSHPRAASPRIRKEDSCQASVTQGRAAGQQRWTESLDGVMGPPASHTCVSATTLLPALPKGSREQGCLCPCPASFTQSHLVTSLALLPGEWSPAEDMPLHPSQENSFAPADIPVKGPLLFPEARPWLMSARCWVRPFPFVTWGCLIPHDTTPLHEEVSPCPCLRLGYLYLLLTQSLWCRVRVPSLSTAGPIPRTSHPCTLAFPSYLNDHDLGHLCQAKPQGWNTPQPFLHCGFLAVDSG

T2: DBF4 (human DBF4/ASK1), Q9UBU7
T2 chain: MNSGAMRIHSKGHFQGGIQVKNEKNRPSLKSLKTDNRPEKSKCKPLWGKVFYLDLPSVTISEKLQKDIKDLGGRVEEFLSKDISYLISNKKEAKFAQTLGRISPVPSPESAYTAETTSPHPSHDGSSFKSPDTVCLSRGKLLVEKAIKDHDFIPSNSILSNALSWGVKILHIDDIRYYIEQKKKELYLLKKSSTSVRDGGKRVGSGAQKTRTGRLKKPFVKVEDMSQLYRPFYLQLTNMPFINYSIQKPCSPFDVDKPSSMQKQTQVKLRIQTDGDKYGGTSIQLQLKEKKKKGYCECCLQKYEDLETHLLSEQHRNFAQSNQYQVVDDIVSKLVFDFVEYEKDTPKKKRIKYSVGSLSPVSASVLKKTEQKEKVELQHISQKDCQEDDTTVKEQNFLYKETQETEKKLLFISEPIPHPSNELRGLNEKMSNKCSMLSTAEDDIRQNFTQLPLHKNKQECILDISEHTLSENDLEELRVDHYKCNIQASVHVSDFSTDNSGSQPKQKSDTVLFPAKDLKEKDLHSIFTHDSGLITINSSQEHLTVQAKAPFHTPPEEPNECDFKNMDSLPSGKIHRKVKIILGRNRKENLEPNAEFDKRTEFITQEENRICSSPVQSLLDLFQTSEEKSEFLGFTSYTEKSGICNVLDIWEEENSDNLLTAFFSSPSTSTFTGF


Assays:
[1] = biological target: T1, HA-DRF1 (DRF1 with N-terminal HA …)
[2] = biological target: T2, DBF4 (human DBF4/ASK1), Q9UBU7

Protein | phosphorylation of DRF1 (32P, FIG. 3 panel A) [1] | phosphorylation of MCM2 (1-285) by immunoprecipitated complexes (32P kinase assay, autoradiography) [1] | phosphorylation of MCM2 by CDC7 [1] | phosphorylation of MCM2 (1-285) by immunoprecipitated complexes (32P kinase assay, autoradiography) [2]
FLAG-tagged human CDC7 kinase, wild type (pCdc7FLAG-tagged, in pCMV-Tag2) (protein) MEASLGIQMDEPMAFSPQRDRFQAEGSLKKNEQNFKLAGVKKDIEKLYEAVPQLSNVFKIEDKIGEGTFSSVYLATAQLQVGPEEKIALKHLIPTSHPIRIAAELQCLTVAGGQDNVMGVKYCFRKNDHVVIAMPYLEHESFLDILNSLSFQEVREYMLNLFKALKRIHQFGIVHRDVKPSNFLYNRRLKKYALVDFGLAQGTHDTKIELLKFVQSEAQQERCSQNKSHIITGNKIPLSGPVPKELDQQSTTKASVKRPYTNAQIQIKQGKDGKEGSVGLSVQRSVFGERNFNIHSSISHESPAVKLMKQSKTVDVLSRKLATKKKAISTKVMNSAVMRKTASSCPASLTCDCYATDKVCSICLSRRQQVAPRAGTPGFRAPEVLTKCPNQTTAIDMWSAGVIFLSLLSGRYPFYKASDDLTALAQIMTIRGSRETIQAAKTFGKSILCSKEVPAQDLRKLCERLRGMDSSTPKLTSDIQGHASHQPAISEKTDHKASCLVQTPPGQYSGNSFKKGDSNSCEHCFDEYNTNLEGWNEVPDEAYDLLDKLLDLNPASRITAEEALLHPFFKDMSL | DRF1, as DBF4, was detected as a phosphoprotein when expressed with wild type CDC7 but not with the kinase negative | In the presence of HA-DRF1 and wild-type CDC7, efficient phosphorylation of MCM2 (1-285) (above the background shown in lane 4, panel B) was observed | in the presence of DRF1, CDC7 is able to phosphorylate its physiological substrates MCM2 | DRF1 is a regulatory subunit of CDC7 able to induce its kinase activity in a way comparable to DBF4 (lane 5)
FLAG-tagged human CDC7 kinase, kinase negative form K90R (pCdc7FLAG K90R) (protein) MEASLGIQMDEPMAFSPQRDRFQAEGSLKKNEQNFKLAGVKKDIEKLYEAVPQLSNVFKIEDKIGEGTFSSVYLATAQLQVGPEEKIALRHLIPTSHPIRIAAELQCLTVAGGQDNVMGVKYCFRKNDHVVIAMPYLEHESFLDILNSLSFQEVREYMLNLFKALKRIHQFGIVHRDVKPSNFLYNRRLKKYALVDFGLAQGTHDTKIELLKFVQSEAQQERCSQNKSHIITGNKIPLSGPVPKELDQQSTTKASVKRPYTNAQIQIKQGKDGKEGSVGLSVQRSVFGERNFNIHSSISHESPAVKLMKQSKTVDVLSRKLATKKKAISTKVMNSAVMRKTASSCPASLTCDCYATDKVCSICLSRRQQVAPRAGTPGFRAPEVLTKCPNQTTAIDMWSAGVIFLSLLSGRYPFYKASDDLTALAQIMTIRGSRETIQAAKTFGKSILCSKEVPAQDLRKLCERLRGMDSSTPKLTSDIQGHASHQPAISEKTDHKASCLVQTPPGQYSGNSFKKGDSNSCEHCFDEYNTNLEGWNEVPDEAYDLLDKLLDLNPASRITAEEALLHPFFKDMSL | – | it can be abolished by overexpression of the mutant K90R (lanes 1 and 6) | – | –
